Among the data in paper PMC6778195 (2019) are Kd values, retold here.

One may read the Kd as the concentration at which binding is half-saturated. Lower therefore signals higher affinity.

The target of the assay is J1a DBLβ domain (wild type) (Plasmodium falciparum). Put plainly: SPR. (SPR reads the build-up and loss of mass on a sensor chip optically.)

B1: ICAM-1^D1D5-Fc (Fc fusion)
chain: QTSVSPSKVILPRGGSVLVTCSTSCDQPKLLGIETPLPKKELLLPGNNRKVYELSNVQEDSQPMCYSNCPDGQSTAKTFLTVYWTPERVELAPLPSWQPVGKNLTLRCQVEGGAPRANLTVVLLRGEKELKREPAVGEPAEVTTTVLVRRDHHGANFSCRTELDLRPQGLELFENTSAPYQLQTFVLPATPPQLVSPRVLEVDTQGTVVCSLDGLFPVSEAQVHLALGDQRLNPTVTYGNDSFSAKASVSVTAEDEGTQRLTCAVILGNQSQETLQTVTIYSFPAPNVILTKPEVSEGTEVTVKCEAHPRAKVTLNGVPAQPLGPRAQLLLKATPEDNGRSFSCSATLEVAGQLIHKNQTRELRVLYGPRLDERDCPGNWTWPENSQQTPMCQAWGNPLPELKCLKDGTFPLPIGESVTVTRDLEGTYLCRARSTQGEVTRKVTVNVLSPRYE
B1: the affinity, expressed as Kd, was 262 nM.
